Laboratory results taken from patent publication US20220064250A1 (AKSTON BIOSCIENCES, published 2022).

Legend:
[1] = target: T1, human insulin receptor on human IM-9 cells (human, UniProt P06213 28-1382); experiment: IM-9 cells, competition with biotinylated RHI, flow cytometry, 4 C
T1 construct: whole, on cells; Endogenous receptor on IM-9 cells; assay run at 4 C; also called IR
Description: (§1) 40 μL of an IM-9 cell suspension (8×10^6 cells/mL) was then added to each well by multichannel pipette, mixed again gently and incubated on ice for 30 min to allow competitive binding on the insulin receptor on IM-9 cells. Cells were then washed twice with 275 μL of ice-cold FACS wash buffer (HBSS/2 mM EDTA/0.1% Na-azide+0.5% horse serum) by centrifuging the V-bottom plate at 3000 rpm for 3 min and aspirating the supernatant. Cells were then resuspended in 40 μL of FACS staining medium containing 1:100 diluted Streptavidin-PE (Life Technologies) for 20 min on ice. Cells were then washed once with 275 μL of ice-cold FACS buffer and finally fixed with 3% paraformaldehyde for 10 min at room temp. Cells were then washed once with 275 μL of ice-cold FACS buffer and resuspended in 250 μl of FACS buffer for analysis.
The V-bottom plates containing cells were then analyzed on a Guava 8-HT flow cytometer (Millipore). Biotinylated-RHI binding to insulin receptor was quantitated by the median fluorescence intensity (MFI) of the cells on the FACS FL-2 channel for each concentration of the test compound. […] The % inhibition by test compounds of biotinylated-RHI binding on IM-9 cells was plotted against log concentrations of the test compound, and the resulting IC50 values were calculated using GraphPad Prism (GraphPad Software, La Jolla, Calif.) for the test compounds. […]

[2] = target: T1, human insulin receptor on human IM-9 …; experiment: IM-9 cells, competition with biotinylated RHI, flow cytometry, 4 C (Table 3, same data as Table 7)
Description: as §1
The V-bottom plates containing cells were then analyzed on a Guava 8-HT flow cytometer (Millipore). Biotinylated-RHI binding to insulin receptor was quantitated by the median fluorescence intensity (MFI) of the cells on the FACS FL-2 channel for each concentration of the test compound. Control wells were labeled only with biotinylated-RHI and were used to calculate the percent (%) inhibition resulting from each test compound concentration. The % inhibition by test compounds of biotinylated-RHI binding on IM-9 cells was plotted against log concentrations of the test compound, and the resulting IC50 values were calculated using GraphPad Prism (GraphPad Software, La Jolla, Calif.) for the test compounds. Lower IC50 values of the test compound therefore indicate greater levels of biotinylated-RHI inhibition at lower concentrations indicating stronger binding of the insulin-Fc fusion protein to the insulin receptor. A control compound, such as unlabeled recombinant human insulin (RHI) was also used as an internal standard to generate an RHI IC50 against which a given compound IC50 could be ratioed (IC50(compound)/IC50(RHI)). […]

[3] = target: T1, human insulin receptor on human IM-9 …; experiment: IM-9 cells, competition with biotinylated RHI, flow cytometry, 4 C (Table 5, same data as Table 9)
Description: (§2) Cultures of IM-9 cells were centrifuged at 250×g (˜1000 rpm) for 10 min to pellet the cells. Cells were washed once with HBSS or PBS buffer, resuspended in cold FACS staining medium (HBSS/2 mM EDTA/0.1% Na-azide+4% horse serum) to a concentration of 8×10^6 cells/mL and kept on ice or 4° C. until test solutions were made. The insulin-Fc protein was diluted in FACS buffer in 1:3 serial dilutions as 2× concentrations in 1.2 mL tubes (approx. 60 μL volume of each dilution), and the solutions were kept cold on ice until ready for pipetting.
(§3) Biotinylated-RHI was diluted in FACS staining medium to a concentration of 1.25 μg/mL. 40 μL of the serially diluted test compound and 8 μL of 1.25 μg/mL Biotin-RHI were added into each well of a V bottom microtiter plate, mixed by slow vortexing, and placed on ice. […]
(§4) The V-bottom plates containing cells were then analyzed on a Guava 8-HT flow cytometer (Millipore). Biotinylated-RHI binding to insulin receptor was quantitated by the median fluorescence intensity (MFI) of the cells on the FACS FL-2 channel for each concentration of the test compound. […] The % inhibition by test compounds of biotinylated-RHI binding on IM-9 cells was plotted against log concentrations of the test compound, and the resulting IC50 values were calculated using GraphPad Prism (GraphPad Software, La Jolla, Calif.) for the test compounds.

[4] = target: T1, human insulin receptor on human IM-9 …; experiment: IM-9 cells, competition with biotinylated RHI, flow cytometry, 4 C; remark: listed apart in the source
Description: as §2, §3, §4

T1 sequence (P06213 28-1382): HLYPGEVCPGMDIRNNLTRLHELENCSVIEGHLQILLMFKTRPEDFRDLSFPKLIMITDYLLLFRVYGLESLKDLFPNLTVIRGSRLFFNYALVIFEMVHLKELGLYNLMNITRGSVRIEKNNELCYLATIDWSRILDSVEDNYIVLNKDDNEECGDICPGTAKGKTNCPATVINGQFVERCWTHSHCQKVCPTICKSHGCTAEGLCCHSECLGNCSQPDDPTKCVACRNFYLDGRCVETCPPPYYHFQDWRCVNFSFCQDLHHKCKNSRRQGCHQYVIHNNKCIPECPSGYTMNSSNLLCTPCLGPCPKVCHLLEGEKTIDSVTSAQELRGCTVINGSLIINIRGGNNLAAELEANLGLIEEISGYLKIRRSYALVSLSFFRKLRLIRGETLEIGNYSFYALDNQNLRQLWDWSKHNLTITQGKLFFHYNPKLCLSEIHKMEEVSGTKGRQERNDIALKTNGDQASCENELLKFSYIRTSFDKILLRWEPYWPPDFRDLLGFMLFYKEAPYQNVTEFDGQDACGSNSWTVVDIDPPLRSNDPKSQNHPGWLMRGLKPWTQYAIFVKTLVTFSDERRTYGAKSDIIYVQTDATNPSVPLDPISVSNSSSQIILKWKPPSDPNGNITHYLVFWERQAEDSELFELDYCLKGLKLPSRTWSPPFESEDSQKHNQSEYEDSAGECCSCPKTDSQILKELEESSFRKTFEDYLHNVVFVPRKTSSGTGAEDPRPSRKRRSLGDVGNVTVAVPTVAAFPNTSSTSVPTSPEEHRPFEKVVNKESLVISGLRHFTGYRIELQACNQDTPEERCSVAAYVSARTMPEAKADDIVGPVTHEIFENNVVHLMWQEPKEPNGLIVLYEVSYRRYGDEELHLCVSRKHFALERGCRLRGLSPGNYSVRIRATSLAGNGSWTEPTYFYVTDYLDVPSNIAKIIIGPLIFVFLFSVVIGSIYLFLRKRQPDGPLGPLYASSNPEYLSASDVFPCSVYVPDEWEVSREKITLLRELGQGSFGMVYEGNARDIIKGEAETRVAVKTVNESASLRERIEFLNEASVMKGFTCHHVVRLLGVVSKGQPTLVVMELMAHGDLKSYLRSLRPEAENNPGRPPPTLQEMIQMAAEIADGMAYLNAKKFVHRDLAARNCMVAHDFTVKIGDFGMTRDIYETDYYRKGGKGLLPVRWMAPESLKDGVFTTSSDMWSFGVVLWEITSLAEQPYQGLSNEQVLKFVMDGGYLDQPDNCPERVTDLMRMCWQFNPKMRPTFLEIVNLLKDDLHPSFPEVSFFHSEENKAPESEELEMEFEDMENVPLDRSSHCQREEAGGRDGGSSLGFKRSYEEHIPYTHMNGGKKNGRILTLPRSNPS

Binder	IC50 [1]	IC50 [2]	IC50 [3]	IC50 [4]
insulin-Fc fusion protein of SEQ ID NO: 33 (insulin polypeptide SEQ ID NO: 16, linker SEQ ID NO: 25, canine IgGA Fc fragment SEQ ID NO: 28) (Fc fusion, Disulfide-linked homodimer made in HEK293 cells; the preparation was only 24% homodimer (highly aggregated)) FVNQHLCGSDLVEALALVCGERGFFYTDPTGGGPRRGIVEQCCHSICSLYQLENYCNGGGGAGGGGRCTDTPPCPVPEPLGGPSVLIFPPKPKDILRITRTPEVTCVVLDLGREDPEVQISWFVDGKEVHTAKTQSREQQFNGTYRVVSVLPIEHQDWLTGKEFKCRVNHIDLPSPIERTISKARGRAHKPSVYVLPPSPKELSSSDTVSITCLIKDFYPPDIDVEWQSNGQQEPERKHRMTPPQLDEDGSYFLYSKLSVDKSRWQQGDPFTCAVMHETLQNHYTDLSLSHSPG	2730 nM	2730 nM		
insulin-Fc fusion protein of SEQ ID NO: 45 (insulin polypeptide SEQ ID NO: 16, linker SEQ ID NO: 25, canine IgGD Fc fragment SEQ ID NO: 31) (Fc fusion, Homodimer made in HEK293 cells; the preparation was highly aggregated (12% homodimer)) FVNQHLCGSDLVEALALVCGERGFFYTDPTGGGPRRGIVEQCCHSICSLYQLENYCNGGGGAGGGGCISPCPVPESLGGPSVFIFPPKPKDILRITRTPEITCVVLDLGREDPEVQISWFVDGKEVHTAKTQPREQQFNSTYRVVSVLPIEHQDWLTGKEFKCRVNHIGLPSPIERTISKARGQAHQPSVYVLPPSPKELSSSDTVTLTCLIKDFFPPEIDVEWQSNGQPEPESKYHTTAPQLDEDGSYFLYSKLSVDKSRWQQGDTFTCAVMHEALQNHYTDLSLSHSPG		> 5000 nM		
insulin-Fc fusion protein of SEQ ID NO: 41 (insulin polypeptide SEQ ID NO: 16, linker SEQ ID NO: 25, canine IgGB Fc fragment SEQ ID NO: 29) (Fc fusion, Disulfide-linked homodimer made in HEK293 cells; 93% homodimer; native cNg glycosylation site kept) FVNQHLCGSDLVEALALVCGERGFFYTDPTGGGPRRGIVEQCCHSICSLYQLENYCNGGGGAGGGGDCPKCPAPEMLGGPSVFIFPPKPKDTLLIARTPEVTCVVVDLDPEDPEVQISWFVDGKQMQTAKTQPREEQFNGTYRVVSVLPIGHQDWLKGKQFTCKVNNKALPSPIERTISKARGQAHQPSVYVLPPSREELSKNTVSLTCLIKDFFPPDIDVEWQSNGQQEPESKYRTTPPQLDEDGSYFLYSKLSVDKSRWQRGDTFICAVMHEALHNHYTQESLSHSPG	28 nM	28 nM		

Second part, the binder after the results:

IC50 [1]	IC50 [2]	IC50 [3]	IC50 [4]	Binder
		147 nM	147 nM	insulin-Fc fusion protein of SEQ ID NO: 51 (insulin polypeptide SEQ ID NO: 16, linker SEQ ID NO: 25, canine IgGB Fc fragment with des hinge D and cNg-K, i.e. … (Fc fusion, Non-glycosylated homodimer made in HEK293 cells; also called cNg-NB138-K) FVNQHLCGSDLVEALALVCGERGFFYTDPTGGGPRRGIVEQCCHSICSLYQLENYCNGGGGAGGGGCPKCPAPEMLGGPSVFIFPPKPKDTLLIARTPEVTCVVVDLDPEDPEVQISWFVDGKQMQTAKTQPREEQFKGTYRVVSVLPIGHQDWLKGKQFTCKVNNKALPSPIERTISKARGQAHQPSVYVLPPSREELSKNTVSLTCLIKDFFPPDIDVEWQSNGQQEPESKYRTTPPQLDEDGSYFLYSKLSVDKSRWQRGDTFICAVMHEALHNHYTQESLSHSPG
		145 nM	145 nM	insulin-Fc fusion protein of SEQ ID NO: 47 (insulin polypeptide SEQ ID NO: 16, linker SEQ ID NO: 25, canine IgGB Fc fragment with cNg-S) (Fc fusion, Non-glycosylated homodimer made in HEK293 cells; also called cNg-NB139-S) FVNQHLCGSDLVEALALVCGERGFFYTDPTGGGPRRGIVEQCCHSICSLYQLENYCNGGGGAGGGGDCPKCPAPEMLGGPSVFIFPPKPKDTLLIARTPEVTCVVVDLDPEDPEVQISWFVDGKQMQTAKTQPREEQFSGTYRVVSVLPIGHQDWLKGKQFTCKVNNKALPSPIERTISKARGQAHQPSVYVLPPSREELSKNTVSLTCLIKDFFPPDIDVEWQSNGQQEPESKYRTTPPQLDEDGSYFLYSKLSVDKSRWQRGDTFICAVMHEALHNHYTQESLSHSPG
